# B1: GLELO: M. alpina GLA elongase, 318 amino acids, encoded by GLELO cDNA (SEQ ID NO:2) in plasmid pRPB2 (protein, listed as Mortierella alpina)
# chain: MESIAPFLPSKMPQDLFMDLATAIGVRAAPYVDPLEAALVAQAEKYIPTIVHHTRGFLVAVESPLARELPLMNPFHVLLIVLAYLVTVFVGMQIMKNFERFEVKTFSLLHNFCLVSISAYMCGGILYEAYQANYGLFENAADHTFKGLPMAKMIWLFYFSKIMEFVDTMIMVLKKNNRQISFLHVYHHSSIFTIWWLVTFVAPNGEAYFSAALNSFIHVIMYGYYFLSALGFKQVSFIKFYITRSQMTQFCMMSVQSSWDMYAMKVLGRPGYPFFITALLWFYMWTMLGLFYNFYRKNAKLAKQAKADAAKEKARKLQ
# B2: 334(pRELO-1): individual clone of S. cerevisiae 334 overexpressing S. cerevisiae elongase ELO2 in pYX242 (pRELO) (protein, UniProt P25358 1-347, looked up)
# Fatty acid elongase 2: MNSLVTQYAAPLFERYPQLHDYLPTLERPFFNISLWEHFDDVVTRVTNGRFVPSEFQFIAGELPLSTLPPVLYAITAYYVIIFGGRFLLSKSKPFKLNGLFQLHNLVLTSLSLTLLLLMVEQLVPIIVQHGLYFAICNIGAWTQPLVTLYYMNYIVKFIEFIDTFFLVLKHKKLTFLHTYHHGATALLCYTQLMGTTSISWVPISLNLGVHVVMYWYYFLAARGIRVWWKEWVTRFQIIQFVLDIGFIYFAVYQKAVHLYFPILPHCGDCVGSTTATFAGCAIISSYLVLFISFYINVYKRKGTKTSRVVKRAHGGVAAKVNEYVNVDLKNVPTPSPSPKPQHRRKR
# B3: 334(pRELO-2): individual clone of S. cerevisiae 334 overexpressing S. cerevisiae elongase ELO2 in pYX242 (pRELO) (protein, UniProt P25358 1-347, looked up)
# Fatty acid elongase 2: MNSLVTQYAAPLFERYPQLHDYLPTLERPFFNISLWEHFDDVVTRVTNGRFVPSEFQFIAGELPLSTLPPVLYAITAYYVIIFGGRFLLSKSKPFKLNGLFQLHNLVLTSLSLTLLLLMVEQLVPIIVQHGLYFAICNIGAWTQPLVTLYYMNYIVKFIEFIDTFFLVLKHKKLTFLHTYHHGATALLCYTQLMGTTSISWVPISLNLGVHVVMYWYYFLAARGIRVWWKEWVTRFQIIQFVLDIGFIYFAVYQKAVHLYFPILPHCGDCVGSTTATFAGCAIISSYLVLFISFYINVYKRKGTKTSRVVKRAHGGVAAKVNEYVNVDLKNVPTPSPSPKPQHRRKR
# B4: pRPL-6-1: PELO1 clone with a single mutation relative to pRPL-6-B2 that dramatically reduced conversion (protein)
# chain: MMLAAGYLLVLSAARQSFQQDIDNPNGAYSTSWTGLPIVMSVVYLSGVFGLTKYFENRKPMTGLKDYMFTYNLYQVIINVWCVVAFLLEVRRAGMSLIGNKVDLGPNSFRLGFVTWVHYNNKYVELLDTLWMVLRKKTQQVSFLHVYHHVLLMWAWFVVVKLGNGGDAYFAGLMNSIIHVMMYSYYTMALLGWSCPWKRYLTQAQLVQFCICLAHSTWAAVTGAYPWRICLVEVWVMVSMLVLFTRFYRQAYAKEAKAKEAKKLAQEASQAKAVKAE
# modifications: Pavlova sp. (specific species unknown)
# B5: PELO1: Pavlova sp. 459 elongase (SEQ ID NO:119) from plasmid pRPL-6-B2 (protein)
# chain: MMLAAGYLLVLSAARQSFQQDIDNPNGAYSTSWTGLPIVMSVVYLSGVFGLTKYFENRKPMTGLKDYMFTYNLYQVIINVWCVVAFLLEVRRAGMSLIGNKVDLGPNSFRLGFVTWVHYNNKYVELLDTLWMVLRKKTQQVSFLHVYHHVLLMWAWFVVVKLGNGGDAYFGGLMNSIIHVMMYSYYTMALLGWSCPWKRYLTQAQLVQFCICLAHSTWAAVTGAYPWRICLVEVWVMVSMLVLFTRFYRQAYAKEAKAKEAKKLAQEASQAKAVKAE
# modifications: Pavlova sp. (specific species unknown)
# What was measured:
# Type in all cases: cell-based, Saccharomyces cerevisiae
# [1] = tested on: S. cerevisiae 334; experiment: Co-expression of GLELO and M. alpina Δ5-desaturase in yeast
# Method: Once DGLA (20:3n-6) is produced by the GLA elongase, the Δ5-desaturase can convert it to AA (20:4n-6) in a desired co-expression system. […] Therefore, the GLA elongase has the ability to work with other enzymes in the n-6 PUFA synthetic pathway to produce desirable fatty acids.
# To determine whether the above conversion is also true in n-3 pathways, the similar co-expression experiments were carried out in the presence of 25 μM STA. Again, if both enzymes are expressed, the STA substrate will be converted to 20:4n-3 which will then be converted to EPA (20:5n-3) by the Δ5-desaturase.
# [2] = tested on: S. cerevisiae 334; experiment: GLA elongase (GLELO) activity and substrate specificity in yeast
# Method: To further confirm the activity of the GLA elongase encoded by the pRPB2 recombinant plasmid, elongase activity screening was repeated on the yeast clone SC334 containing pRPB2 plasmid. This experiment was also conducted to assure consistent lipid extraction and to detect the activity of GLA elongase by averaging four independent experiments. The S. cerevisiae 334 glycerol stock containing pRPB2 was plated onto minimal media agar plates lacking uracil. Individual colonies were randomly picked and grown in minimal medium lacking uracil, as described in Example VIII. The four independent cultures were combined, and a 5 ml aliquot was used as an inoculum for four separate 50 ml cultures. The cultures were then grown in the presence of GLA and were subjected to fatty acid analysis along with a negative control of S. cerevisiae 334 containing pYES2, as described in Example VIII. The GLA elongase activity of each of the four independent samples of 334(pRPB2) appeared to be consistent with an average conversion of 62% GLA to DGLA.
# To analyze the substrate specificity of the GLA elongase, the culture of 334(pRPB2) was tested with different fatty acid substrates besides GLA (e.g., SA(18:0), OA(18:1), LA(18:2n-6), AA(20:4n-6), ADA(22:4n-6), ALA(18:3n-3), STA(18:4n-3), and EPA(20:5n-3)). […] GLA elongase was able to convert 73% of STA to 20:4n-3 (FIG. 25).
# [3] = tested on: S. cerevisiae 334; experiment: Comparison of MAELO and S. cerevisiae ELO2 PUFA elongase activity in baker's yeast; conditions: 25 μM GLA; FIG. 12
# Description: The ELO2 gene encoding for the yeast elongase was cloned from an S. cerevisiae genomic library (Origene, Rockville, Md.) using the primers RO514 (SEQ ID NO: 94) (5′-GGCTATGGATCCATGAATTCACTCGTTACTCAATATG-3′) and RO515 (SEQ ID NO: 95)(5′-CCTGCCAAGCTTTTACCTTTTTCTTCTGTGTTGAG-3′) incorporating the restriction sites (underlined) BamHI and HindIII (respectively). The ELO2 gene was cloned into the vector pYX242 at the BamHI and HindIII sites, designated pRELO, transformed into the S. cerevisiae host 334 (Hoveland et al., supra) and screened for PUFA elongase activity. The vector plasmid was used as a negative control and 334(pRAE-5) was grown to compare the PUFA elongase activity. The cultures were grown as previously described with no galactose in the media and 25 μM GLA added as a substrate. […] Additionally, when DGLA produced is expressed as a percent of the total lipids (shown in parenthesis, FIG. 12), the clones 334(pRELO-1) and 334 (pRELO-2) produced 0.153% and 0.2% DGLA respectively, while 334(pYX242) produced 0.185% DGLA. […] The M. alpina PUFA elongase activity is specific for this conversion as evidenced by the higher amount of DGLA produced compared to the control, 334(pYX242).
# [4] = tested on: S. cerevisiae 334; experiment: Pavlova sp. elongase PELO1 activity in yeast; conditions: for elongation of GLA to DGLA: 25 μM of GLA
# Method: The construct pRPL-6-1 was transformed into S. cerevisiae 334 (Hoveland et al., supra) and screened for elongase activity. S. cerevisiae 334 containing the unaltered pYX242 vector was used as a negative control. The cultures were grown for 44 hours at 24°C, in selective media (Ausubel et al., supra), in the presence of 25 μM of GLA or EPA. In this study, DGLA or ω3-docosapentaenoic acid (DPA, 22:5n-3), respectively, was the predicted product of the elongase activity.
# The constructs pRPL-6-B2 and pRPL-6-A3 were transformed into S. cerevisiae 334 (Hoveland et al., supra) and screened for elongase activity. S. cerevisiae 334 containing the unaltered pYX242 vector was used as a negative control. The cultures were grown for 44 hours at 24° C., in selective media (Ausubel et al., supra), in the presence of 25 μM of GLA or EPA. In this study, DGLA or ω3-docosapentaenoic acid (DPA, 22:5n-3), respectively, was the predicted product of the elongase activity.
# To further confirm the substrate specificity of the algal elongation enzyme, described above and referred to herein as PELO1p, the recombinant yeast strain 334(pRPL-6-B2) was grown in minimal media containing n-6 fatty acids LA, GLA, DGLA, AA, or n-3 fatty acids ALA, STA, ETA, EPA, or 20:0, or 20:1. […] The levels of these fatty acids were 1.40% ADA and 2.54% […], respectively, of the total fatty acids in the strains containing the PELO1 sequence. […] No elongation of the saturated fatty acid 20:0, or monounsaturated fatty acid 20:1 was seen. Also, no elongation of the C18 substrates LA, GLA, ALA, or STA was seen.
# [5] = 25 μM of EPA, 44 hours at 24° C.
molecule,measurement,setting,value
B1,average conversion of GLA to AA,"[1]; 25 μM GLA, co-expressed with Δ5-desaturase (pRPE31), FIG. 26A",27%
same,production of EPA,"[1]; 25 μM STA, co-expressed with Δ5-desaturase, FIG. 26B",approx. 40%
same,average conversion of GLA to DGLA,"[2]; 25 μM GLA, four independent cultures, FIG. 24",62%
same,"utilization of other substrates SA, OA, LA, AA, ADA, ALA, STA, EPA",[2]; identical assay conditions,the only other substrate utilized by the elongase enzyme was STA
same,conversion of STA to 20:4n-3,"[2]; substrate STA, FIG. 25",73%
B2,DGLA produced as a percent of the total lipids,[3],0.153%
same,amount of 20:3n-6 or DGLA produced relative to negative control pYX242,[3],twice
B3,DGLA produced as a percent of the total lipids,[3],0.2%
same,amount of 20:3n-6 or DGLA produced relative to negative control pYX242,[3],twice
B4,"DPA, of total fatty acids",[4]; [5],0.34%
same,"EPA (substrate), of total fatty acids",[4]; [5],32.28%
same,elongation of GLA to DGLA,[4]; 44 hours at 24° C.,no conversion of GLA to DGLA was seen
B5,conversion of the substrate EPA to DPA,"[4]; 25 μM of EPA, 44 hours at 24° C., FIG. 99",significant levels of conversion
same,elongation of GLA to DGLA,[4]; 44 hours at 24° C.,GLA was not elongated to DGLA
same,elongation of saturated fatty acid 20:0 or monounsaturated fatty acid 20:1,[4]; FIG. 101,No elongation
same,"elongation of the C18 substrates LA, GLA, ALA, or STA",[4]; FIG. 101,no elongation
same,conversion of AA to ADA,"[4]; substrate AA, FIG. 101",14.0%
same,"level of ADA, of the total fatty acids","[4]; substrate AA, FIG. 101",1.40%
same,conversion of EPA to product elongated by two carbon atoms,"[4]; substrate EPA, FIG. 101",14.1%
same,"level of EPA (so in the source), of the total fatty acids","[4]; substrate EPA, FIG. 101",2.54%
